The record followed here is patent publication US5912224.

In the assay the target is TGF-β type I receptor of Mv1Lu cells (mink).

The substance myristylated FKBP12 had a TGFβ induced 3TP-Luc luciferase activity in Mv1Lu cells of 25 fold.
